Laboratory results as given in article PMC6113293, “Phosphorylation of ULK1 affects autophagosome fusion and links chaperone-mediated autophagy to macroautophagy” (Nature Communications, 2018).

Tests used:
GFP-STX17, P56962 = target: T1, GFP-STX17, P56962; test: proximity ligation; GFP-STX17 co-transfected with Myc-ULK1 variants or Myc vector into HeLa; anti-Myc and anti-GFP antibodies; with or without serum starvation; details: remark: other sources report otherwise
T1 chain: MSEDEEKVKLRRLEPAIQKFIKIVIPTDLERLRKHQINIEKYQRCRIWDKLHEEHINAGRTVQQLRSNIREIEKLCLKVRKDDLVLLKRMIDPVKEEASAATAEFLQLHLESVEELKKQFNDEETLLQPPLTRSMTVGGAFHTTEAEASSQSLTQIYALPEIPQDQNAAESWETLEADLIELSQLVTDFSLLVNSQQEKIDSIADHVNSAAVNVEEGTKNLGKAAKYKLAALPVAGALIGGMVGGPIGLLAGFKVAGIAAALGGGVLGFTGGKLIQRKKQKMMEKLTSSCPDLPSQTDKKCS

[1] = target: T2, GST-ULK1 279–525 (from bacteria) (UniProt O75385 279-525); test: pull-down; GST-ULK1 279–525 and His-STX17 157–275 purified from bacteria, incubated in IP lysis buffer with glutathione beads for 4 h at 4 °C; western blot with His antibody; details: both partners purified
T2 construct: in the vector pGEX-4t-2; source: E. coli BL21 codon plus, purified
T2 sequence (looked up): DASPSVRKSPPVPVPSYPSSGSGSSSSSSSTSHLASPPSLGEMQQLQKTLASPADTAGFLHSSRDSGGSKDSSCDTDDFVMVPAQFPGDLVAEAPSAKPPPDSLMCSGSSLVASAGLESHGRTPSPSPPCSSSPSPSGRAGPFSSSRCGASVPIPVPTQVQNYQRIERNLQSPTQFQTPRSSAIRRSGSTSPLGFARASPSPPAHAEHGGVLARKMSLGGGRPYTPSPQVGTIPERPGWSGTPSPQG

B1: Myc-ULK1 WT, O75385 1-1050 (enzyme)
chain: MEPGRGGTETVGKFEFSRKDLIGHGAFAVVFKGRHREKHDLEVAVKCINKKNLAKSQTLLGKEIKILKELKHENIVALYDFQEMANSVYLVMEYCNGGDLADYLHAMRTLSEDTIRLFLQQIAGAMRLLHSKGIIHRDLKPQNILLSNPAGRRANPNSIRVKIADFGFARYLQSNMMAATLCGSPMYMAPEVIMSQHYDGKADLWSIGTIVYQCLTGKAPFQASSPQDLRLFYEKNKTLVPTIPRETSAPLRQLLLALLQRNHKDRMDFDEFFHHPFLDASPSVRKSPPVPVPSYPSSGSGSSSSSSSTSHLASPPSLGEMQQLQKTLASPADTAGFLHSSRDSGGSKDSSCDTDDFVMVPAQFPGDLVAEAPSAKPPPDSLMCSGSSLVASAGLESHGRTPSPSPPCSSSPSPSGRAGPFSSSRCGASVPIPVPTQVQNYQRIERNLQSPTQFQTPRSSAIRRSGSTSPLGFARASPSPPAHAEHGGVLARKMSLGGGRPYTPSPQVGTIPERPGWSGTPSPQGAEMRGGRSPRPGSSAPEHSPRTSGLGCRLHSAPNLSDLHVVRPKLPKPPTDPLGAVFSPPQASPPQPSHGLQSCRNLRGSPKLPDFLQRNPLPPILGSPTKAVPSFDFPKTPSSQNLLALLARQGVVMTPPRNRTLPDLSEVGPFHGQPLGPGLRPGEDPKGPFGRSFSTSRLTDLLLKAAFGTQAPDPGSTESLQEKPMEIAPSAGFGGSLHPGARAGGTSSPSPVVFTVGSPPSGSTPPQGPRTRMFSAGPTGSASSSARHLVPGPCSEAPAPELPAPGHGCSFADPITANLEGAVTFEAPDLPEETLMEQEHTEILRGLRFTLLFVQHVLEIAALKGSASEAAGGPEYQLQESVVADQISLLSREWGFAEQLVLYLKVAELLSSGLQSAIDQIRAGKLCLSSTVKQVVRRLNELYKASVVSCQGLSLRLQRFFLDKQRLLDRIHSITAERLIFSHAVQMVQSAALDEMFQHREGCVPRYHKALLLLEGLQHMLSDQADIENVTKCKLCIERRLSALLTGICA
- fold increase of the PLA signal with serum starvation over no starvation (GFP-STX17, P56962): 2.5 fold

B2: His-STX17 157–275 (domain or fragment, UniProt P56962 157-275, looked up)
chain: YALPEIPQDQNAAESWETLEADLIELSQLVTDFSLLVNSQQEKIDSIADHVNSAAVNVEEGTKNLGKAAKYKLAALPVAGALIGGMVGGPIGLLAGFKVAGIAAALGGGVLGFTGGKLI
notes: in the vector pET-26b(+); source: E. coli BL21 codon plus, purified; not shown: His6, C-terminal, kept
- binding result [1]: binds
